Measured values taken from PMC5415421.

Target: WDR74 isoform II, C-terminal GFP (human)
Assay: co-IP

relative amount of NVL2 bound to the resin: 9.2%
B1: Full-length mouse NVL2 (1–855), N-terminal One-Strep-Flag tag (enzyme)
chain: MKPRPGVFVDRKLKQRVIQYLSSNRCGKYVDTGILASDLQRLYSVDYGRRKRNAFRIQVEKVFSIISSEKELKNLKELEDGHLAKRARQDEEDEYTESYSDDDSNMEDYPDPQSANPMNSSLLSLYRRGNSESVSTTPKWGQREATTSTPLLTSKTGSVPLKTPARESEGGWFIDKTPGGKKESLPLDLSDDQSNSKKQDSEIQILKDSSLLESDKKRKGRAKGKGNKRKTENLQEVDGEIEALLQKKAKARSTELQISNVKFEDVGGNDATLKEVCKMLIHMRHPEVYQHLGVVPPRGVLLHGPPGCGKTLLAHAIAGELDLPILKVAAPEIVSGVSGESEQKLRELFDQAVSNAPCIVFIDEIDAITPKREVASKDMERRIVAQLLTCMDDLNNVAATARVLVIGATNRPDSLDPALRRAGRFDREVCLGIPDEAARERILQTLCRKLRLPETFNFCHLAHLTPGFVGADLMALCREAAMCAVNRVLMKQQAQQKKKPEIEGLPSEGDQEERLGAEPTSETQDELQRLLGLLRDQDPLSEEQMQGLCIELNDFIVALAEVQPSAKREGFVTVPNVTWADIGALEDIRDELIMAILAPVRNPDQFRTLGLGTPAGILLAGPPGCGKTLLAKAVANESGLNFISVKGPELLNMYVGESERAVRQVFQRAKNSAPCVIFFDEVDALCPRRSDRETGASVRVVNQLLTEMDGLETRQQVFILAATNRPDIIDPAILRPGRLDKTLFVGLPPPADRVAILKTITKNGTKPPLDEDVNLETIANDLRCNCYTGADLTALVREASLCALRQEITAQKNGVGAGELKVSHKHFEDAFKKVKPSISIKDQVMYEALQRSLSQ
